Measured values published in IntAct's records for PubMed 15171681.

B1: Protein S100-P (Homo sapiens), P25815 (parent)
chain: MTELETAMGMIIDVFSRYSGSEGSTQTLTKGELKVLMEKELPGFLQSGKDKDAVDKLLKDLDANGDAQVDFSEFIVFVAAITSACHKYFEKAGLK
B2: Protein S100-A1 (Homo sapiens), P23297 (parent)
chain: MGSELETAMETLINVFHAHSGKEGDKYKLSKKELKELLQTELSGFLDAQKDVDAVDKVMKELDENGDGEVDFQEYVVLVAALTVACNNFFWENS
partner: B1 chain

Variants of: B1
Details: with S100A1, P23297

Variant	effect of a mutation on the interaction
I75G	disrupting interaction
F74G	disrupting interaction
F74V	disrupting interaction
F71A	disrupting interaction
I75G;V76G	decreasing interaction
F15A	disrupting interaction
I11A;I12A	disrupting interaction

Variants of: B2
Details: with S100P

Variant	effect of a mutation on the interaction
L12H;F16A;F72L	disrupting interaction
F16A	disrupting interaction
